The supplement of paper PMC9112550, “Optimization of the antimicrobial peptide Bac7 by deep mutational scanning” (BMC Biology, 2022)

Test system: Escherichia coli TOP10
Assay: shrunken log2 fold change of peptide-encoding DNA abundance (4.5 h post-induction vs induction); higher = less antimicrobial activity (less host growth inhibition)
Settings: time post-induction: 4.5 h; library: site-saturation at positions 5, 18, 19, 20
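Further: peptides expressed intracellularly from a pBAD plasmid library in pooled LB shake-flask culture, induced with 0.3% L-arabinose, DNA abundance read by NGS, three biological replicates, DESeq2 with apeglm shrinkage.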

| Sequence | shrunken log2 fold change |
| --- | --- |
| RRIRERPPRLPRPRPRPQVWPRP | -0.0702 |
| RRIRKRPPRLPRPRPRPSFLPRP | 0.104 |
| RRIRSRPPRLPRPRPRPYPLPRP | -0.105 |
| RRIRDRPPRLPRPRPRPKQHPRP | 0.0788 |
| RRIRWRPPRLPRPRPRPPTLPRP | 0.315 |
| RRIRIRPPRLPRPRPRPQTLPRP | -0.129 |
| RRIRWRPPRLPRPRPRPETMPRP | 0.569 |
| RRIRNRPPRLPRPRPRPRCHPRP | -0.572 |
| RRIRWRPPRLPRPRPRPDSNPRP | -0.189 |
| RRIRVRPPRLPRPRPRPNLGPRP | -0.185 |
| RRIRHRPPRLPRPRPRPSGTPRP | -0.0258 |
| RRIRRRPPRLPRPRPRPLYHPRP | -0.353 |
| RRIRHRPPRLPRPRPRPPCLPRP | -0.0439 |
| RRIRSRPPRLPRPRPRPIMPPRP | -0.121 |
| RRIRLRPPRLPRPRPRPWGQPRP | -0.0472 |
| RRIRFRPPRLPRPRPRPTRRPRP | 0.928 |
| RRIRRRPPRLPRPRPRPEDMPRP | 0.296 |
| RRIRGRPPRLPRPRPRPIMTPRP | 2.36 |
| RRIRHRPPRLPRPRPRPYSLPRP | -0.319 |
| RRIRSRPPRLPRPRPRPSKGPRP | -0.142 |
| RRIRFRPPRLPRPRPRPFSEPRP | -0.0573 |
| RRIRTRPPRLPRPRPRPKFNPRP | -0.375 |
| RRIRWRPPRLPRPRPRPKENPRP | 0.373 |

| Sequence | shrunken log2 fold change |
| --- | --- |
| RRIRLRPPRLPRPRPRPPFGPRP | 0.0044 |
| RRIRCRPPRLPRPRPRPHSHPRP | -0.307 |
| RRIRMRPPRLPRPRPRPIWSPRP | 0.0584 |
| RRIRLRPPRLPRPRPRPNKFPRP | -0.206 |
| RRIRERPPRLPRPRPRPLLIPRP | -0.437 |
| RRIRHRPPRLPRPRPRPIWQPRP | -0.123 |
| RRIRPRPPRLPRPRPRPFPAPRP | -0.161 |
| RRIRIRPPRLPRPRPRPMDAPRP | 0.0153 |
| RRIRCRPPRLPRPRPRPTNLPRP | -0.656 |
| RRIRYRPPRLPRPRPRPYNFPRP | -0.246 |
| RRIRPRPPRLPRPRPRPIASPRP | -0.0044 |
| RRIRWRPPRLPRPRPRPKCEPRP | 0.359 |
| RRIRGRPPRLPRPRPRPENFPRP | 0.0598 |
| RRIRGRPPRLPRPRPRPHMIPRP | 0.0265 |
| RRIRYRPPRLPRPRPRPEYAPRP | -0.0128 |
| RRIRNRPPRLPRPRPRPDFDPRP | -0.0771 |
| RRIRSRPPRLPRPRPRPHCKPRP | -0.397 |
| RRIRSRPPRLPRPRPRPDSIPRP | 0.0681 |
| RRIRERPPRLPRPRPRPHGIPRP | -0.00973 |
| RRIRVRPPRLPRPRPRPPDAPRP | 0.254 |
| RRIRERPPRLPRPRPRPGEHPRP | 0.0251 |
| RRIRFRPPRLPRPRPRPVRGPRP | 0.576 |
| RRIRMRPPRLPRPRPRPCRMPRP | -0.0205 |

| Sequence | shrunken log2 fold change |
| --- | --- |
| RRIRSRPPRLPRPRPRPIAVPRP | 0.22 |
| RRIRQRPPRLPRPRPRPMGKPRP | -0.167 |
| RRIRHRPPRLPRPRPRPSCHPRP | -0.509 |
| RRIRSRPPRLPRPRPRPKEEPRP | 0.0302 |
| RRIRWRPPRLPRPRPRPWNCPRP | -0.116 |
| RRIRTRPPRLPRPRPRPKVFPRP | -0.0334 |
| RRIRLRPPRLPRPRPRPTIIPRP | 0.0804 |
| RRIRVRPPRLPRPRPRPMVVPRP | -0.0329 |
| RRIRTRPPRLPRPRPRPAGTPRP | 0.0902 |
| RRIRTRPPRLPRPRPRPNRVPRP | -0.0472 |
| RRIRPRPPRLPRPRPRPSWKPRP | 0.105 |
| RRIRARPPRLPRPRPRPPWHPRP | 0.342 |
| RRIRCRPPRLPRPRPRPKYSPRP | -0.898 |
| RRIRCRPPRLPRPRPRPFNHPRP | -0.427 |
| RRIRCRPPRLPRPRPRPDKSPRP | -1.38 |
| RRIRLRPPRLPRPRPRPSSVPRP | 0.0713 |
| RRIRLRPPRLPRPRPRPKPKPRP | 0.607 |
| RRIRMRPPRLPRPRPRPAECPRP | 0.042 |
| RRIRDRPPRLPRPRPRPGISPRP | 0.0115 |
| RRIRHRPPRLPRPRPRPAYQPRP | -0.0802 |
| RRIRERPPRLPRPRPRPWIPPRP | 0.0136 |
| RRIRKRPPRLPRPRPRPTQKPRP | 0.0634 |
| RRIRCRPPRLPRPRPRPSYTPRP | -0.748 |

| Sequence | shrunken log2 fold change |
| --- | --- |
| RRIRVRPPRLPRPRPRPKSKPRP | -0.117 |
| RRIRQRPPRLPRPRPRPKRRPRP | 0.0204 |
| RRIRHRPPRLPRPRPRPGKEPRP | -0.0977 |
| RRIRTRPPRLPRPRPRPARVPRP | 0.195 |
| RRIRLRPPRLPRPRPRPDANPRP | 0.0586 |
| RRIRERPPRLPRPRPRPPDMPRP | -0.332 |
| RRIRYRPPRLPRPRPRPKDDPRP | -0.153 |
| RRIRHRPPRLPRPRPRPNNHPRP | -0.915 |
| RRIRVRPPRLPRPRPRPTARPRP | 0.293 |
| RRIRKRPPRLPRPRPRPECPPRP | 0.306 |
| RRIRARPPRLPRPRPRPMEQPRP | 0.0309 |
| RRIRVRPPRLPRPRPRPPEWPRP | -0.00654 |
| RRIRQRPPRLPRPRPRPPDRPRP | 0.0477 |
| RRIRIRPPRLPRPRPRPSACPRP | -0.561 |
| RRIRPRPPRLPRPRPRPRKDPRP | 0.173 |
| RRIRYRPPRLPRPRPRPTHFPRP | 0.262 |
| RRIRPRPPRLPRPRPRPWQRPRP | -0.0107 |
| RRIRTRPPRLPRPRPRPWACPRP | -0.151 |
| RRIRQRPPRLPRPRPRPWSTPRP | -0.0264 |
| RRIRWRPPRLPRPRPRPPHPPRP | 0.373 |
| RRIRYRPPRLPRPRPRPHPSPRP | 0.0761 |
| RRIRLRPPRLPRPRPRPQRGPRP | 0.111 |
